# According to patent US20130012436A1 (Bristol-Myers Squibb, published 2013):
# Where a chain is given by its changes, count along the chain named.
# T1: human IL-23 (human, UniProt Q9NPF7 20-189; P29460 23-328)
# T1 construct: also called hIL-23; human recombinant IL-23
# T1 sequence (looked up) 1: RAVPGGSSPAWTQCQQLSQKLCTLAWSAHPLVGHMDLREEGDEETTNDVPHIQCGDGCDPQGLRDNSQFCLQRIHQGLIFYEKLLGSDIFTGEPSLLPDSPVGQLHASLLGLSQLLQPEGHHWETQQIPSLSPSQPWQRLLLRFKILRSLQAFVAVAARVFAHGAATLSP
# T1 sequence (looked up) 2: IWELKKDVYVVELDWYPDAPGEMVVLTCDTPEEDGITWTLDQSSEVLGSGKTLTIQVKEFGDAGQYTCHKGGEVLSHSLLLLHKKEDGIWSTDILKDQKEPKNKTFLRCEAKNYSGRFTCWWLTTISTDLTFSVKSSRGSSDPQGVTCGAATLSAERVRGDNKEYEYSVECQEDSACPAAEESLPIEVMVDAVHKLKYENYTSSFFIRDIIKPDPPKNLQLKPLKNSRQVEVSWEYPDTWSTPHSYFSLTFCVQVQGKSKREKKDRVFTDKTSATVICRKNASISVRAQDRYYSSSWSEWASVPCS
# B1: 1572H08 (designed binder)
# chain: MGVSDVPRDLEVVAATPTSLLISWGHYPLHVRYYRITYGETGGNSPVQEFTVPSRKYTATISGLKPGVDYTITVYAVTYYNEADYSQIPISINYRTEIDKPSQHHHHHH
# notes: captured by anti-His mAb
# B2: 1550 E03 (designed binder)
# chain: B1 chain with V31I, S54R, R55M, K56R, Y57H, N81S, A83E, D84L, S86K, Q87Y
# notes: captured by anti-His mAb
# B3: 1487G03 (designed binder)
# chain: B1 chain with S54A, R55H, K56R
# notes: captured by anti-His mAb
# B4: 1486D05 (designed binder)
# chain: B1 chain with S54H, R55Q, K56R
# notes: captured by anti-His mAb
# B5: 1486C04 (designed binder)
# chain: B1 chain with L29M, S54P, R55H, K56R
# notes: captured by anti-His mAb
# B6: 1490G02 (designed binder)
# chain: B1 chain with L29M, S54P, K56Y, Y57H, N81M, A83E, D84K, S86A, Q87V
# notes: captured by anti-His mAb
# B7: 1550A07 (designed binder)
# chain: B1 chain with L29M, S54V, R55P, K56R, N81A, E82Q, A83E, D84N, S86K, Q87E
# notes: captured by anti-His mAb
# B8: 1437G04 (designed binder)
# chain: B1 chain with S54Y, R55Y, K56H
# notes: captured by anti-His mAb
# B9: 1490H08 (designed binder)
# chain: B1 chain with V31I, S54N, R55T, K56S, Y57H
# notes: captured by anti-His mAb
# B10: 1486D04 (designed binder)
# chain: B1 chain with V31I, S54R, R55S, K56T, Y57H
# notes: captured by anti-His mAb
# B11: 1571F10 (designed binder)
# chain: B1 chain with V31I, K56Y, Y57H, N81E, E82Q, A83V, D84E, S86R, Q87E
# notes: captured by anti-His mAb
# B12: 1490A07 (designed binder)
# chain: B1 chain with V31I, S54H, R55A, N81A, E82Q, A83E, D84N, S86K, Q87E
# notes: captured by anti-His mAb
# B13: 1487D09 (designed binder)
# chain: B1 chain with L29M, V31I, S54R, R55S, K56R, Y57H
# notes: captured by anti-His mAb
# B14: 1572D04 (designed binder)
# chain: B1 chain with L29M, S54P, K56R, N81E, E82Q, A83P, D84I, S86A, Q87T
# notes: captured by anti-His mAb
# B15: 1490 E02 (designed binder)
# chain: B1 chain with L29M, S54R, R55T, K56Q
# notes: captured by anti-His mAb
# B16: 1550C05 (designed binder)
# chain: B1 chain with L29M, S54P, K56R
# notes: captured by anti-His mAb
# B17: 1486G03 (designed binder)
# chain: B1 chain with L29M, K56Y
# notes: captured by anti-His mAb
# B18: 1491A05 (designed binder)
# chain: B1 chain with R55Q, K56V, N81A, E82Q, A83E, D84N, S86K, Q87E
# notes: captured by anti-His mAb
# B19: 1487H04 (designed binder)
# chain: B1 chain with L29M, S54A, K56Q, N81Q, A83Y, D84E, S86R, Q87Y
# notes: captured by anti-His mAb
# B20: 1490C07 (designed binder)
# chain: B1 chain with R55N, K56R
# notes: captured by anti-His mAb
# B21: 1572B10 (designed binder)
# chain: B1 chain with L29M, S54V, R55P, K56R, Y57H
# notes: captured by anti-His mAb
# B22: 1490H06 (designed binder)
# chain: B1 chain with V31I, S54R, R55Q
# notes: captured by anti-His mAb
# B23: 1550H05 (designed binder)
# chain: B1 chain with S54R, R55Q, K56I
# notes: captured by anti-His mAb
# B24: 1437A09 (designed binder)
# chain: B1 chain with L29M, R55K, K56Q, Y57H
# notes: captured by anti-His mAb
# B25: 1487C03 (designed binder)
# chain: B1 chain with V31I, S54K, R55Q, K56V
# notes: captured by anti-His mAb
# B26: 1486B05 (designed binder)
# chain: B1 chain with L29M, K56I
# notes: captured by anti-His mAb
# B27: 1434A08 (designed binder)
# chain: B1 chain with L29M, S54H, K56T, Y57H
# B28: 1438E05 (designed binder)
# chain: B1 chain with L29M, R55N, K56V, Y57H
# B29: 1438B02 (designed binder)
# chain: B1 chain with L29M, S54R, R55K, K56T
# B30: 1438D01 (designed binder)
# chain: B1 chain with L29M, S54N, K56A, Y57H
# B31: 1438A09 (designed binder)
# chain: B1 chain with L29M, S54R, R55S, K56R
# Target: T1, human IL-23
# Assay: SPR, Adnectin captured by anti-His mAb, IL-23 injected
# Method: All surface plasmon experiments were conducted in HBS-EP (10 mM Hepes 150 mM NaCl 3 mM EDTA 0.05% Surfactant P20) at 25° C. IL-23 was injected over anti-His mAb captured Adnectins for 2 minutes followed by a 10 minute dissociation phase. Evaluation of the binding specificity was completed using Biacore T100 evaluation software. Additional detailed methods are described in Example 4.
kon,Kd,koff,Binder
57300 M⁻¹ s⁻¹,,,B1
99500 M⁻¹ s⁻¹,1.9 nM,0.000186 s⁻¹,B2
103000 M⁻¹ s⁻¹,3.1 nM,0.000316 s⁻¹,B3
120000 M⁻¹ s⁻¹,2.9 nM,0.000344 s⁻¹,B4
112000 M⁻¹ s⁻¹,3.4 nM,0.000379 s⁻¹,B5
197000 M⁻¹ s⁻¹,1.7 nM,0.000332 s⁻¹,B6
117000 M⁻¹ s⁻¹,1.1 nM,0.000133 s⁻¹,B7
134000 M⁻¹ s⁻¹,3.3 nM,0.000446 s⁻¹,B8
167000 M⁻¹ s⁻¹,3.5 nM,0.000587 s⁻¹,B9
151000 M⁻¹ s⁻¹,2.3 nM,0.000352 s⁻¹,B10
268000 M⁻¹ s⁻¹,,,B11
163000 M⁻¹ s⁻¹,,,B12
150000 M⁻¹ s⁻¹,1.7 nM,0.00025 s⁻¹,B13
103000 M⁻¹ s⁻¹,2.9 nM,0.000294 s⁻¹,B14
97300 M⁻¹ s⁻¹,4.8 nM,0.000465 s⁻¹,B15
65900 M⁻¹ s⁻¹,2.1 nM,0.000135 s⁻¹,B16
86200 M⁻¹ s⁻¹,4.9 nM,0.000425 s⁻¹,B17
198000 M⁻¹ s⁻¹,2.1 nM,0.000408 s⁻¹,B18
59600 M⁻¹ s⁻¹,,,B19
95600 M⁻¹ s⁻¹,4.5 nM,0.000426 s⁻¹,B20
65300 M⁻¹ s⁻¹,,,B21
93500 M⁻¹ s⁻¹,,,B22
65200 M⁻¹ s⁻¹,3.3 nM,0.000212 s⁻¹,B23
80600 M⁻¹ s⁻¹,5.7 nM,0.00046 s⁻¹,B24
161000 M⁻¹ s⁻¹,2.4 nM,0.000382 s⁻¹,B25
134000 M⁻¹ s⁻¹,2.8 nM,0.000381 s⁻¹,B26

# Target: T1, human IL-23
# Assay: cell-based or functional assay
row,Kit 225 pSTAT3 IC50 (nM),Binder
1,4.9 nM,B27
2,39.6 nM,B28
3,8.6 nM,B29
4,11.4 nM,B30
5,2.8 nM,B1
6,10.8 nM,B31
7,5.3 nM,B2
8,3 nM,B3
9,4 nM,B4
10,31.9 nM,B5
11,0.4 nM,B6
12,1 nM,B7
13,3.3 nM,B8
14,2 nM,B10
15,0.1 nM,B11
16,0.6 nM,B12
17,2 nM,B13
18,4 nM,B14
19,16.8 nM,B16
20,3 nM,B17
21,0.3 nM,B18
22,2 nM,B19
23,5.6 nM,B20
24,0.8 nM,B21
25,2.3 nM,B22
26,1.5 nM,B23
27,20.2 nM,B24
28,3.7 nM,B25
29,4 nM,B26
